Test results published in paper PMC11033290.

Biological target: Recombinant MDP1 (Mycobacterial DNA-binding protein 1) of M. tuberculosis produced in Escherichia coli (Mycobacterium tuberculosis) (UniProt P9WMK7)
Assay: cross-linking; glutaraldehyde 0.2%, room temperature, 30 min; 4 µM or 8 µM protein in 150-1500 mM NaCl; SDS-PAGE on a 4-15% gradient gel

Recombinant MDP1 (Mycobacterial DNA-binding protein 1) of M. tuberculosis produced in Escherichia coli (from UniProt P9WMK7 3-216) (natural protein)
stoichiometry N: 2
